Measured values published in patent US6753315.

Target: Torpedo nicotinic acetylcholine receptor (nAChR-enriched membranes) (Torpedo (species not stated)) (UniProt P02710)

Pichia-expressed, purified recombinant α-bungarotoxin (rBgtx) (from UniProt P60615 22-95) (ligand)
reduction in 125I-Bgtx bound: 45%
